Experimental data published in US20240327530A1 (ICHNOS SCIENCES, published 2024).
Residue numbers refer to the chain shown, from its start. Names may count otherwise.

T1: Recombinant mouse IL-1RAP Fc fusion protein (Sino Biologicals, catalog no. 52657-M02H) (mouse, UniProt Q61730 21-350)
T1 construct: Bought; not shown: Fc part of the bought fusion protein
T1 sequence: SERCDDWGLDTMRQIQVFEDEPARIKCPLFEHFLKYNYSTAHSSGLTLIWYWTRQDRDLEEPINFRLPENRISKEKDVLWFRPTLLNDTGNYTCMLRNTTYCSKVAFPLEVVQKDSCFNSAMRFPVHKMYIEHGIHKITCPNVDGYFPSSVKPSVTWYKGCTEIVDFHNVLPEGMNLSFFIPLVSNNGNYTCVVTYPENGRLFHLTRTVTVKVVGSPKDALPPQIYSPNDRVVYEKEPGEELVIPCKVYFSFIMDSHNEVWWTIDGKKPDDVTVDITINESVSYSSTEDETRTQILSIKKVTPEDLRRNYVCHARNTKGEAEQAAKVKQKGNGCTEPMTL

T2: Recombinant human IL-1RAP Fc fusion protein (Acrobiosystems, catalog no. ILP-H5256) (human, UniProt Q9NPH3 21-359, limits assumed)
T2 construct: Bought; not shown: Fc part of the bought fusion protein
T2 sequence: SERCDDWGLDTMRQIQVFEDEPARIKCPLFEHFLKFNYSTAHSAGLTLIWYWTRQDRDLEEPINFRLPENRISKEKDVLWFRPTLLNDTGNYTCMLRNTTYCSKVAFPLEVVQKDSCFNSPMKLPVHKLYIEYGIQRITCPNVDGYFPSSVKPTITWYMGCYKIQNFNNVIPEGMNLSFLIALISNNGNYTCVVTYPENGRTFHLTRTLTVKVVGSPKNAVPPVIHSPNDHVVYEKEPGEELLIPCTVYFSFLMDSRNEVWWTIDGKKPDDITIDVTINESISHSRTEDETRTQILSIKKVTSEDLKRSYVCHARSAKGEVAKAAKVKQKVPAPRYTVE

T3: Recombinant cynomolgus monkey IL-1RAP-ECD(S21-E359)-avi-his protein (cynomolgus monkey, UniProt P59822 21-359 (rhesus entry))
T3 construct: also called cyno IL-1RAP-ECD-Avi-His; recombinant cynomolgus monkey IL-1RAP-avi-his protein
T3 sequence: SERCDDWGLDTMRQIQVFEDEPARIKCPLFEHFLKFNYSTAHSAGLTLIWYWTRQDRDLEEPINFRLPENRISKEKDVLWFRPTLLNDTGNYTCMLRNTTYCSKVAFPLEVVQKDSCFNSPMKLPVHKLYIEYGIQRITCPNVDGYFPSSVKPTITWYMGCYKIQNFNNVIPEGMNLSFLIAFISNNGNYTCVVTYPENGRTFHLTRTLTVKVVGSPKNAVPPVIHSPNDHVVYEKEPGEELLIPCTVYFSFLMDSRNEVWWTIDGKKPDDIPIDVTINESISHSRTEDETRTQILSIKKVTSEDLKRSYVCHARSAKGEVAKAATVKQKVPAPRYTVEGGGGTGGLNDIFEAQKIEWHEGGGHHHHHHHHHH

B1: Anti-IL-1RAP-UCP02-B11-Fab (Fab, V domains shown)
VH: QVQLVQSGAEVKKPGSSVKVSCKASGGHFSQFAISWVRQAPGQGLEWMGGIAPGLGSTRYAQKFQGRVTITADESTSTAYMELSSLRSEDTAVYYCARDSIYSAWLAYWGQGTLVTVSS
VL: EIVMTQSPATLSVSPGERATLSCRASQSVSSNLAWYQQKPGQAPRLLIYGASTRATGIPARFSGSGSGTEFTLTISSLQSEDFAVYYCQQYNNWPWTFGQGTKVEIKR
B2: Anti-IL-1RAP-UCP03-C2-Fab (Fab, V domains shown)
VH: QVQLVQSGAEVKKPGSSVKVSCKASGDPFKRYAIGWVRQAPGQGLEWMGGIIPTTGEAIYAQKFQGRVTITADESTSTAYMELSSLRSEDTAVYYCARHGTTYAAFDHWGQGTLVTVSS
VL: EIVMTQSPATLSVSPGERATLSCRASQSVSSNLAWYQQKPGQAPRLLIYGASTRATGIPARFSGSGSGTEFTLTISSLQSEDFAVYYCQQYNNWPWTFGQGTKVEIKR
B3: Anti-IL-1RAP-UCP03-G4-Fab (Fab, V domains shown)
VH: QVQLVQSGAEVKKPGSSVKVSCKASGGRFSHYVFSWVRQAPGQGLEWMGGIIPYEGKPFYAQKFQGRVTITADESTSTAYMELSSLRSEDTAVYYCARSDYFYYYFDPWGQGTLVTVSS
VL: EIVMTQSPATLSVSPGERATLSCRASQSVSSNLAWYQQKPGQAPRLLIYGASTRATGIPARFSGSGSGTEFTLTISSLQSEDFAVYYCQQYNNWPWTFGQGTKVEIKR
B4: Anti-IL-1RAP-UCP03-G3-Fab (Fab, V domains shown)
VH: QVQLVQSGAEVKKPGSSVKVSCKASGGPLSGYAFHWVRQAPGQGLEWMGGIIPNFAQTDYAQKFQGRVTITADESTSTAYMELSSLRSEDTAVYYCARFSIYSGWSDVWGQGTLVTVSS
VL: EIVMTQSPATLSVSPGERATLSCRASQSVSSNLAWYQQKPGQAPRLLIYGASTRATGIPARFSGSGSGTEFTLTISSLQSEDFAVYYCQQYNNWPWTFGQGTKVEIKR
B5: Anti-IL-1RAP-C8-H1A-C4-Fab (Fab, V domains shown)
VH: QVQLVQSGAEVKKPGSSVKVSCKASGGKLNAYAIQWVRQAPGQGLEWMGYIIPLHGQVDYAQKFQGRVTITADESTSTAYMELSSLRSEDTAVYYCARGQTLYDSGRQFDIWGQGTLVTVSS
VL: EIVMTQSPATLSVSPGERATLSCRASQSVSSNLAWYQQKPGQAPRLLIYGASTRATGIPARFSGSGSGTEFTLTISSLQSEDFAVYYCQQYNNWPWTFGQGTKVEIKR
B6: Anti-IL-1RAP-C8-H1A-C8-Fab (Fab, V domains shown)
VH: B5 VH with K28L, L29F, N30S, A31D
VL: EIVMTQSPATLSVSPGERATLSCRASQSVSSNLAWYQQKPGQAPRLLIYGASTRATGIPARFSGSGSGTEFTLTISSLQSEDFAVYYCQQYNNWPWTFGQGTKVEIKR
B7: Anti-IL-1RAP-C8-H1B-D8-Fab (Fab, V domains shown)
VH: B5 VH with G27P, K28S, L29N, N30P, A31V
VL: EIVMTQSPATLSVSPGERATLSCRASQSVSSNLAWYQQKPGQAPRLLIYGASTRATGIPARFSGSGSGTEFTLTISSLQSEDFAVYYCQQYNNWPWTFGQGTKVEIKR
B8: Anti-IL-1RAP-C8-H1A-D8-Fab (Fab, V domains shown)
VH: B5 VH with K28H, L29F, A31N
VL: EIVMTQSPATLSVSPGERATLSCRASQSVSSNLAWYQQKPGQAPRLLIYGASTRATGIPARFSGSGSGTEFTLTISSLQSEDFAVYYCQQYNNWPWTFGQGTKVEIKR
B9: Anti-IL-1RAP-C8-H1B-E7-Fab (Fab, V domains shown)
VH: B5 VH with G27S, L29H, N30G, A31N
VL: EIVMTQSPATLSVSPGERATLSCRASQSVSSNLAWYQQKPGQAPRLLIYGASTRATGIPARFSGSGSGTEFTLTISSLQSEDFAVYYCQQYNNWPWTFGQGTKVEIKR
B10: Anti-IL-1RAP-C8-recA-Fab (Fab, V domains shown)
VH: B5 VH with G27S, K28T, L29W, N30E, A31P, L54S, H55L, Q57G, V58Y
VL: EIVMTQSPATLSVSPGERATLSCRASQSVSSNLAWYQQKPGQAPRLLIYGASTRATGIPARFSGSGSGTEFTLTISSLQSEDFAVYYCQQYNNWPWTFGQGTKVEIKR
B11: Anti-IL-1RAP-C8-H2B-C10-Fab (Fab, V domains shown)
VH: B5 VH with K28Q, L29F, N30S, A31E, L54S, H55L, Q57G, V58Y
VL: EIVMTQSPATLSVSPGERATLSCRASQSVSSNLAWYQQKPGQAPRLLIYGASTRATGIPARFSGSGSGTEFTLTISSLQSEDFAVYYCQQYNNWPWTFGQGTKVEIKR
notes: also called ISB 880-C8-H2B-C10
B12: Anti-IL-1RAP-C8-H1A-G11-Fab (Fab, V domains shown)
VH: B5 VH with K28R, L29F, N30H, A31Q
VL: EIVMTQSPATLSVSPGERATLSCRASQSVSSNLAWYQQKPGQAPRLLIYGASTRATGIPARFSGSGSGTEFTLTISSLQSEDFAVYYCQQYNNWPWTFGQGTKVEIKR
B13: Anti-IL-1RAP-C8-H1A-F1-Fab (Fab, V domains shown)
VH: B5 VH with K28I, L29F, N30S, A31N
VL: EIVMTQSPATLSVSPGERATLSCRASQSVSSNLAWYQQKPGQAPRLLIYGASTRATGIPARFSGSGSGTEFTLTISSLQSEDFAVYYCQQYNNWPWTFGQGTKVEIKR
B14: Anti-IL-1RAP-C8-H1A-G3-Fab (Fab, V domains shown)
VH: B5 VH with K28P, L29F, N30S, A31D
VL: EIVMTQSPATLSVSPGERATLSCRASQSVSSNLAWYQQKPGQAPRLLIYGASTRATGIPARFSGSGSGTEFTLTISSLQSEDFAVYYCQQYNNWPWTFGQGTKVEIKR
B15: Anti-IL-1RAP-C8-recC-Fab (Fab, V domains shown)
VH: B5 VH with G27S, K28P, L29A, N30E, A31P, L54S, H55L, Q57G, V58Y
VL: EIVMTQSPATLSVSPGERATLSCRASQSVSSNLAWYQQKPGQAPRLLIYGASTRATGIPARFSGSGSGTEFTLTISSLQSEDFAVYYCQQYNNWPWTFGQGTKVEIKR
notes: also called Fab clone anti-IL-1RAP-C8-RecC
B16: Anti-IL-1RAP-C8-H1A-G1-Fab (Fab, V domains shown)
VH: B5 VH with K28A, L29S, N30R, Q35H
VL: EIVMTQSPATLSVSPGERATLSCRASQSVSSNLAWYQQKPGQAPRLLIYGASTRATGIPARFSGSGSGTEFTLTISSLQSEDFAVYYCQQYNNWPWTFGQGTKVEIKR
B17: Anti-IL-1RAP-C8-H1B-A8-Fab (Fab, V domains shown)
VH: B5 VH with G27E, K28G, L29S, N30Y, A31P
VL: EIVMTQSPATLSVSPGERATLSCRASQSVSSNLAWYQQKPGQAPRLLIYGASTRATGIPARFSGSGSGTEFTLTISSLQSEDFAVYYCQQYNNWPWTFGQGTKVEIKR
B18: Anti-IL-1RAP-C8-H1B-B8-Fab (Fab, V domains shown)
VH: B5 VH with G27S, K28P, L29A, N30E, A31P
VL: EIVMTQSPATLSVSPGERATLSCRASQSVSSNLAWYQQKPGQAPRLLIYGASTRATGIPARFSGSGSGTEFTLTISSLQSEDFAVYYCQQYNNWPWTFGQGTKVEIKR
notes: also called ISB 880-C8-H1B-B8
B19: Anti-IL-1RAP-C8-H1B-B10-Fab (Fab, V domains shown)
VH: B5 VH with G27V, K28T, L29H, N30T, A31S
VL: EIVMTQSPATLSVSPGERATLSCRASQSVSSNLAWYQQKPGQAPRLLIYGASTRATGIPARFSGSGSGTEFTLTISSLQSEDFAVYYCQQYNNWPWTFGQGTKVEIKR
B20: Anti-IL-1RAP-C8-recB-Fab (Fab, V domains shown)
VH: B5 VH with K28P, L29R, N30R, L54S, H55L, Q57G, V58Y
VL: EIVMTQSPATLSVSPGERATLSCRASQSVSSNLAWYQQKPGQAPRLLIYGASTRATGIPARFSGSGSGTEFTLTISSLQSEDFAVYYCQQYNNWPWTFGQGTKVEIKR
B21: Anti-IL-1RAP-C8-H1B-H10-Fab (Fab, V domains shown)
VH: B5 VH with G27S, K28T, L29W, N30E, A31P
VL: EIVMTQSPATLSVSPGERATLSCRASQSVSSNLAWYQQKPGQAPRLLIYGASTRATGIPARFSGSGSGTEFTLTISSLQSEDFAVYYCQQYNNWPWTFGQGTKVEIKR
B22: Anti-IL-1RAP-C8-H2B-B5-Fab (Fab, V domains shown)
VH: B5 VH with K28Q, L29F, N30S, A31E, L54T, H55V, Q57G, V58F
VL: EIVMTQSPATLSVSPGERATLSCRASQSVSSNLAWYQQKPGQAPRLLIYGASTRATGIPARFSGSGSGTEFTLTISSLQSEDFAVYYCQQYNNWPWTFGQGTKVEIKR
B23: Anti-IL-1RAP-C8-H1B-F3-Fab (Fab, V domains shown)
VH: B5 VH with K28P, L29H, N30T, Y32H
VL: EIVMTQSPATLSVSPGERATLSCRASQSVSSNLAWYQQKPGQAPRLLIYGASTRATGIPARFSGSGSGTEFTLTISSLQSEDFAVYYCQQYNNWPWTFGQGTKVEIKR
B24: Anti-IL-1RAP-C8-H1B-G10-Fab (Fab, V domains shown)
VH: B5 VH with K28P, L29R, N30R
VL: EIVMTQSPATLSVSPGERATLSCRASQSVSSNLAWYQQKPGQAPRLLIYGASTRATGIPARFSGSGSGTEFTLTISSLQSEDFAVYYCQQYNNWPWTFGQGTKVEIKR

Molecular target: T1, Recombinant mouse IL-1RAP Fc fusion …
Assay: SPR, mouse IL-1RAP-Fc captured, Fab as analyte
Experimental: (§1) Surface plasmon resonance (SPR) was used to measure the binding affinities of the Fab fragments for human, cynomolgus monkey and/or mouse IL-1RAP. Affinities were measured on a BIACORE™ T200 instrument (BIACORE™, GE […]®) at 25° C. and analyzed with the BIACORE™ T200 Evaluation Software (v3.1). Measurements were performed on Series S CM5 sensor chips (BIACORE™ T200, BIACORE™, GE […]®, catalog no. BR100530) coupled with anti-human IgG Fc (BIACORE™, GE […]®, catalog no. BR100839) using a commercial amine coupling kit (BIACORE™, GE […]®, catalog no. BR100050) or on Series S BiotinCAPture chips (BIACORE™, GE […]®, catalog no. 28920234). SPR measurements were performed with commercially available recombinant human IL-1RAP Fc fusion protein (Acrobiosystems, catalog no. ILP-H5256) and recombinant mouse IL-1RAP Fc fusion protein (Sino Biologicals, catalog no. 52657-M02H) or with biotinylated recombinant cynomolgus monkey IL-1RAP-avi-his protein produced in-house (SEQ ID NO. 2).
(§2) The affinities to human, cynomolgus monkey and mouse IL-1RAP were assessed by immobilizing IL-1RAP and using Fab fragments as analyte. Around 100 RU of human or mouse IL-1RAP Fc fusion protein were captured on fc2 of a Series S CM5 sensor chip coupled with anti-human IgG Fc and around 150 RU of biotinylated cynomolgus monkey IL-1RAP protein were captured on fc2 of a Series S BiotinCAPture chip. Fab fragments were injected in single cycle kinetic at different concentrations ranging from 7.8 to 500 nM, in HBS-EP+ buffer (BIACORE™, GE […]®, catalog no. BR100669) at a flow rate of 30 μl/min for 3 min on fc1 and fc2 (fc1 being used as reference). Dissociation was monitored for 5 min. After each cycle, the surface was regenerated with 60 μl of regeneration solution provided with anti-human IgG Fc capture kit (BIACORE™, GE […]®, catalog no. BR100839) or BiotinCAPture kit (BIACORE™, GE […]®, catalog no. 28920234) respectively. Experimental data were processed using the 1:1 Langmuir kinetic fitting model. Measurements included zero-concentration samples for referencing. Chi², U- and residual values were used to evaluate the quality of a fit between the experimental data and individual binding models.

Row | binding result | Binder
1 | no binding (tested: 7.8 to 500 nM Fab) | B1
2 | no binding (tested: 7.8 to 500 nM Fab) | B2
3 | no binding (tested: 7.8 to 500 nM Fab) | B3
4 | no binding (tested: 7.8 to 500 nM Fab) | B4

Molecular target: T2, Recombinant human IL-1RAP Fc fusion …
Assay: SPR, human IL-1RAP-Fc captured, Fab as analyte, 1:1 fit
Experimental: as §1, §2

Row | Kd | Binder
5 | 98.1 nM | B1
6 | 700 nM | B2
7 | 420 nM | B3
8 | 279 nM | B4

Molecular target: T2, Recombinant human IL-1RAP Fc fusion …
Assay: SPR, human IL-1RAP-Fc captured, Fab as analyte (0.08 to 50 nM)
Experimental: BR100669) at a flow rate of 30 μl/min for 3 min on fc1 and fc2 (fc1 being used as reference). Dissociation was monitored for 5 min. After each cycle, the surface was regenerated with 60 μl of regeneration solution provided with anti-human IgG Fc capture kit (BIACORE™, GE […]®, catalog no. BR100839) or BiotinCAPture kit (BIACORE™, GE […]®, catalog no. 28920234) respectively. Experimental data were processed using the 1:1 Langmuir kinetic fitting model. Measurements included zero-concentration samples for referencing. Chi², U- and residual values were used to evaluate the quality of a fit between the experimental data and individual binding models. […]

Row | Kd | Binder
9 | 0.995 nM | B5
10 | 1.24 nM | B6
11 | 0.476 nM | B7
12 | 1.51 nM | B8
13 | 0.831 nM | B9
14 | 0.051 nM | B10
15 | 0.589 nM | B11
16 | 0.742 nM | B12
17 | 0.832 nM | B13
18 | 0.623 nM | B14
19 | 0.038 nM | B15
20 | 0.424 nM | B16
21 | 0.522 nM | B17
22 | 0.373 nM | B18
23 | 0.553 nM | B19
24 | 0.052 nM | B20
25 | 0.209 nM | B21
26 | 1.37 nM | B22
27 | 0.427 nM | B23
28 | 0.313 nM | B24

Molecular target: T3, Recombinant cynomolgus monkey …
Assay: SPR, biotinylated cyno IL-1RAP-avi-his captured, Fab as analyte, 1:1 fit
Experimental: as §1, §2

Row | Kd | Binder
29 | 78.7 nM | B1
30 | 486 nM | B2
31 | 378 nM | B3
32 | 464 nM | B4
